Screen value data for three variants are collected here from PMC10958042.

The labels stand for the following.
B1: ATGL (PNPLA2, patatin-like phospholipase domain-containing protein 2), human, full length / CGI-58 (ABHD5, 1-acylglycerol-3-phosphate O-acyltransferase ABHD5), human (parent)
chain 1: MFPREKTWNISFAGCGFLGVYYVGVASCLREHAPFLVANATHIYGASAGALTATALVTGVCLGEAGAKFIEVSKEARKRFLGPLHPSFNLVKIIRSFLLKVLPADSHEHASGRLGISLTRVSDGENVIISHFNSKDELIQANVCSGFIPVYCGLIPPSLQGVRYVDGGISDNLPLYELKNTITVSPFSGESDICPQDSSTNIHELRVTNTSIQFNLRNLYRLSKALFPPEPLVLREMCKQGYRDGLRFLQRNGLLNRPNPLLALPPARPHGPEDKDQAVESAQAEDYSQLPGEDHILEHLPARLNEALLEACVEPTDLLTTLSNMLPVRLATAMMVPYTLPLESALSFTIRLLEWLPDVPEDIRWMKEQTGSICQYLVMRAKRKLGRHLPSRLPEQVELRRVQSLPSVPLSCAAYREALPGWMRNNLSLGDALAKWEECQRQLLLGLFCTNVAFPPEALRMRAPADPAPAPADPASPQHQLAGPAPLLSTPAPEARPVIGALGL
chain 2: MAAEEEEVDSADTGERSGWLTGWLPTWCPTSISHLKEAEEKMLKCVPCTYKKEPVRISNGNKIWTLKFSHNISNKTPLVLLHGFGGGLGLWALNFGDLCTNRPVYAFDLLGFGRSSRPRFDSDAEEVENQFVESIEEWRCALGLDKMILLGHNLGGFLAAAYSLKYPSRVNHLILVEPWGFPERPDLADQDRPIPVWIRALGAALTPFNPLAGLRIAGPFGLSLVQRLRPDFKRKYSSMFEDDTVTEYIYHCNVQTPSGETAFKNMTIPYGWAKRPMLQRIGKMHPDIPVSVIFGARSCIDGNSGTSIQSLRPHSYVKTIAILGAGHYVYADQPEEFNQKVKEICDTVD

Variants of B1 are the subject of this assay. The assay is described as follows: LUMIER: Protein A-ATGL variant and firefly luciferase-partner co-expressed in HEK293T, lysates immunoprecipitated on IgG-coated plates, co-precipitated partner measured as luciferase luminescence. Conditions: with CGI-58 (ABHD5, 1-acylglycerol-3-phosphate O-acyltransferase ABHD5), transient co-transfection, IgG-coated LUMITRAC plates, 2 h at 4 °C, three PBS washes, Bright-Glo luciferase reagent, triplicates per assay, two …, scale: log2 fold change of co-immunoprecipitated luminescence relative to wild-type ATGL within each experiment.

chain 1 MFPREKTWNISFAGCGFLGVYYVGVASCLREHAPALVANATHIYGASAGALTATALVTGVCLGEAGAKFIEVSKEARKRFLGPLHPSFNLVKIIRSFLLKVLPADSHEHASGRLGISLTRVSDGENVIISHFNSKDELIQANVCSGFIPVYCGLIPPSLQGVRYVDGGISDNLPLYELKNTITVSPFSGESDICPQDSSTNIHELRVTNTSIQFNLRNLYRLSKALFPPEPLVLREMCKQGYRDGLRFLQRNGLLNRPNPLLALPPARPHGPEDKDQAVESAQAEDYSQLPGEDHILEHLPARLNEALLEACVEPTDLLTTLSNMLPVRLATAMMVPYTLPLESALSFTIRLLEWLPDVPEDIRWMKEQTGSICQYLVMRAKRKLGRHLPSRLPEQVELRRVQSLPSVPLSCAAYREALPGWMRNNLSLGDALAKWEECQRQLLLGLFCTNVAFPPEALRMRAPADPAPAPADPASPQHQLAGPAPLLSTPAPEARPVIGALGL [chain 1 F35A]: the screen value reads like this: (parent: 0.32, not graded) -0.0512; (parent: 0.45, not graded) -0.207.
On to chain 1 MFPREKTWNISFAGCGFLGVYYVGVASCLREHAPELVANATHIYGASAGALTATALVTGVCLGEAGAKFIEVSKEARKRFLGPLHPSFNLVKIIRSFLLKVLPADSHEHASGRLGISLTRVSDGENVIISHFNSKDELIQANVCSGFIPVYCGLIPPSLQGVRYVDGGISDNLPLYELKNTITVSPFSGESDICPQDSSTNIHELRVTNTSIQFNLRNLYRLSKALFPPEPLVLREMCKQGYRDGLRFLQRNGLLNRPNPLLALPPARPHGPEDKDQAVESAQAEDYSQLPGEDHILEHLPARLNEALLEACVEPTDLLTTLSNMLPVRLATAMMVPYTLPLESALSFTIRLLEWLPDVPEDIRWMKEQTGSICQYLVMRAKRKLGRHLPSRLPEQVELRRVQSLPSVPLSCAAYREALPGWMRNNLSLGDALAKWEECQRQLLLGLFCTNVAFPPEALRMRAPADPAPAPADPASPQHQLAGPAPLLSTPAPEARPVIGALGL [chain 1 F35E], for which the screen value came out at 0.146 (parent: 0.32, not graded) and 0.336 (parent: 0.45, not graded).
The corresponding values for chain 1 MFPREKTWNISFAGCGFLGVYYVGVASCLREHAPFLVANATHIYGASAGALTATALVTGVCLGEAGAKFIEVSKEARKRFLGPLHPSFNLVKIIRSFLLKVLPADSHEHASGRLGISLTRVSDGENVIISHFNSKDELIQANVCSGFIPVYCGLIPPSLQGVRYVDGGISDNLPLYELKNTITVSPFSGESDICPQDSSTNIHELRVTNTSIQFNLRNLYRLSKALFPPEPLVLREMCKQGYRDGLRFLQRNGLLNRPNPLLALPPARPHGPEDKDQAVESAQAEDYSQLPGEDHILEHLPARLNEALLEACVEPTDLLTTLSNMLPVRLATAMMVPYTLPLESALSETIRLLEWLPDVPEDIRWMKEQTGSICQYLVMRAKRKLGRHLPSRLPEQVELRRVQSLPSVPLSCAAYREALPGWMRNNLSLGDALAKWEECQRQLLLGLFCTNVAFPPEALRMRAPADPAPAPADPASPQHQLAGPAPLLSTPAPEARPVIGALGL [chain 1 F348E] are -0.83 and -1.02.
